Reference: paper PMC8158011 (Proceedings of the National Academy of Sciences of the …, 2021)

Biological target: T1, FGFR4-Ecto-Fc (ectodomain of human FGFR4 fused to the Fc region of human IgG1) (human, UniProt P22455 22-369)
T1 sequence (looked up): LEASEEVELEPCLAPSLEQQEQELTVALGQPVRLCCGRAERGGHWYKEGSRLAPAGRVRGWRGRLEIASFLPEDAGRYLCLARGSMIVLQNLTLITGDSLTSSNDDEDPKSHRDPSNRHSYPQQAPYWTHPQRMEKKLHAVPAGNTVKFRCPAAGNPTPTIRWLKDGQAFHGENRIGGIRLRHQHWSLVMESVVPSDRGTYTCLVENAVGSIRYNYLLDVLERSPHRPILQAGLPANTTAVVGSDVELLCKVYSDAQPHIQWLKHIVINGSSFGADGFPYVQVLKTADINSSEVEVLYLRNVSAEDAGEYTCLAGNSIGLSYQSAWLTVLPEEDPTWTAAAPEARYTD
Experiment: pull-down

B1: purified recombinant human FAM3B-His protein (ligand, UniProt P58499 30-235, looked up)
chain: ELIPDAPLSSAAYSIRSIGERPVLKAPVPKRQKCDHWTPCPSDTYAYRLLSGGGRSKYAKICFEDNLLMGEQLGNVARGINIAIVNYVTGNVTATRCFDMYEGDNSGPMTKFIQSAAPKSLLFMVTYDDGSTRLNNDAKNAIEALGSKEIRNMKFRSSWVFIAAKGLELPSEIQREKINHSDAKNNRYSGWPAEIQIEGCIPKERS
B1: binds.
